Experimental findings from patent US20220204630A1 (SUNSHINE LAKE PHARMA, published 2022) are described below.

The target of test [1] is T1, TrkA protein on HEK-293T-TrkA cells or NIH-3T3-TrkA cells (human, UniProt P04629 33-796). The test can be described thus: cell-based or functional assay.
In test [2] the target is T1, TrkA protein on HEK-293T-TrkA cells or …. The test can be described thus: flow cytometry on HEK-293T-TrKA cells. The source says: (§1) In FIG. 7, the EC₅₀ (half-binding concentration) value reflects the affinity of the antibody. The smaller the EC₅₀ value, the higher the affinity of the antibody.
Test [3] deals with T2, TrKA receptor protein coated in ELISA (Examples 11 and 16) (human, UniProt P04629 33-423, limits assumed).
T2 construct: also called Human-TrKA
T2 sequence (P04629 33-423 limits assumed): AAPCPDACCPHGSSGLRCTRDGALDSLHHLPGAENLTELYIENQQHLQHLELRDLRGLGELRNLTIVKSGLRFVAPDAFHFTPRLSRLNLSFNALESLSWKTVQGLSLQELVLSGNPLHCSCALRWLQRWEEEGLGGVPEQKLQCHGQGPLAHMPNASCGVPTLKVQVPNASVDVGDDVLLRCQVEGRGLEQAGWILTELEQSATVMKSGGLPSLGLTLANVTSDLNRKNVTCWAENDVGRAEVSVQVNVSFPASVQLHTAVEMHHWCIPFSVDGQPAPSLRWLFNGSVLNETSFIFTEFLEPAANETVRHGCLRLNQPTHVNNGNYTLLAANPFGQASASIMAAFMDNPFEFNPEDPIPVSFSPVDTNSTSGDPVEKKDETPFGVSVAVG
The test can be described thus: ELISA plateau, antibody up to 20 µg/mL on TrKA. As for the experimental part: The TrkA receptor family belongs to receptor tyrosine kinases (RTKs), including TrkA, TrkB, and TrkC, which have high homology. TrkA is a receptor tyrosine kinase of nerve growth factor (NGF) that selectively binds to NGF and is a functional receptor for NGF. In addition to the high-affinity receptor TrkA, NGF can also bind to its low-affinity receptor p75. In the test, the binding of test antibodies at different concentrations (20 μg/mL, 10 μg/mL, 5 μg/mL, 2.5 μg/mL, 1.25 μg/mL, 0.625 μg/mL, 0.313 μg/mL, 0.156 μg/mL, 0.078 μg/mL, 0.039 μg/mL, 0.019 μg/mL) to TrKA, TrKB, TrKC, and P75 respectively was detected by the ELISA method, and the specificity of the test antibody binding to the target TrKA was evaluated. In the FIG. 8, at a certain antibody concentration, the OD₄₅₀ value reflects the binding strength of the antibody to the protein. The larger the reading, the stronger the binding of the antibody to the protein. […] It can be seen that the specificity of the binding of the test antibodies to the target TrKA is very good.

A further test has as its target T3, Mouse-TrKA protein (mouse, UniProt Q3UFB7 34-420, limits assumed).
T3 construct: also called Mouse-TrKA receptor
Description: ELISA, antibody titrated on Mouse-TrKA protein, OD 450. As for the experimental part: Test antibody (23E12, 21E5) samples were diluted with PBS buffer solution to 11 concentration gradients (20 μg/mL, 10 μg/mL, 5 μg/mL, 2.5 μg/mL, 1.25 μg/mL, […], 0.313 μg/mL, 0.156 μg/mL, 0.078 μg/mL, 0.039 μg/mL, 0.019 μg/mL). The binding of the test antibody to the Mouse-TrKA receptor at each concentration gradient was detected by the ELISA method, thus the binding ability of the test antibody to the Mouse-TrKA protein was detected. In FIG. 9, at a certain antibody concentration, the OD₄₅₀ value reflects the binding strength of the antibody to the protein. The larger the reading, the stronger the binding of the antibody to the protein. […] It can be seen that the test antibodies 23E12, 21E5, and Mouse-TrKA protein all have good binding ability.
(In general: An ELISA detects its analyte on a solid surface through an enzyme-linked reagent.)

Test [4] addresses T1, TrkA protein on HEK-293T-TrkA cells or …. Description: flow cytometry, antibody titrated on HEK-293T-TrKA cells, Parent %.
Description: as §1

Test [5] concerns the target T4, TRKA protein with a histidine tag (human, UniProt P04629 33-423, limits assumed).
T4 construct: it is put last here only for order; also called TRKA (50 µg/ml, 75 kDa, provided by HEC Labs); not shown: histidine tag
The test can be described thus: BLI (Fortebio Octet RED96), His-tagged TRKA on Ni-NTA sensor, antibody 80-2.93 nM. As for the experimental part: They were added to each well of the sample plate. […] The KD value is the equilibrium dissociation constant between the antibody and its antigen, and the KD value is inversely proportional to the affinity. The KD value is related to the antibody concentration (the amount of antibody required for a particular experiment). The lower the KD value (the lower the concentration), the higher the affinity of the antibody. High-affinity antibodies are generally considered to be in the low nanomolar range (10⁻⁹).

The target in test [6] is T2, TrKA receptor protein coated in ELISA …. Description: competition ELISA: antibody titrated against biotinylated NGF binding to TrkA, OD450.
Test [7] addresses T1, TrkA protein on HEK-293T-TrkA cells or …. The test can be described thus: flow cytometry competition: antibody titrated against biotinylated NGF binding to HEK-293T-TrkA cells, % parent. In general terms: A flow cytometer gives signals particle by particle.
Test [8] concerns the target T5, Mouse-TrKA receptor on the surface of HEK293T-Mouse-TrKA cells (mouse, UniProt Q3UFB7 34-799).
T5 construct: whole, on cells; also called Mouse-TrkA protein on HEK293T-Mouse-TrkA cells
Description: flow cytometry on HEK293T-Mouse-TrKA cells. As for the experimental part:
The test antibody 23E12 samples were diluted with PBS buffer to 11 concentration gradients (20 μg/mL, 10 μg/mL, 5 μg/mL, 2.5 μg/mL, 1.25 μg/mL, 0.625 μg/mL, 0.313 μg/mL, 0.156 μg/mL, 0.078 μg/mL, 0.039 μg/mL, 0.019 μg/mL), and the binding of the test antibody to the Mouse-TrKA receptor on the surface of HEK293T-Mouse-TrKA cells at each concentration gradient was detected by flow cytometry. The binding ability of the antibody to Mouse-TrKA protein was tested. In FIG. 10, the EC₅₀ (half the binding concentration) value reflects the binding capacity of the antibody. The smaller the EC₅₀ value, the stronger the binding capacity of the antibody. […] It can be seen that the test antibody 23E12 has a good binding ability with the Mouse-TrKA receptor on the surface of HEK293T-Mouse-TrKA cells.

For test [9], the target named is T5, Mouse-TrKA receptor on the surface of …. Description: flow cytometry competition on HEK293T-Mouse-TrkA cells; competitor biotinylated Mouse-NGF. As for the experimental part: Mouse-NGF was biotinylated. Mouse-NGF could bind to the extracellular region of Mouse-TrkA protein on HEK293 T-Mouse-TrkA cells, and anti-Mouse-TrkA monoclonal antibody could also bind to the extracellular region of Mouse-TrkA protein on HEK293T-Mouse-TrkA cells. A competitive experiment was designed to detect the binding of Mouse-NGF to the extracellular region of Mouse-TrkA protein on HEK293T-Mouse-TrkA cells under different concentrations (20 μg/mL, 10 μg/mL, 5 μg/mL, 2.5 μg/mL, 1.25 μg/mL, 0.625 μg/mL, 0.313 μg/mL, 0.156 μg/mL, 0.078 μg/mL, 0.039 μg/mL, 0.019 μg/mL) of test antibodies by flow cytometry, thus the inhibition effect of test antibodies on the binding of Mouse-NGF and Mouse-TrKA was investigated. In FIG. 12, the parent % value reflects the Mouse-NGF signal that binds to the extracellular region of the Mouse-TrKA protein on the HEK293T-Mouse-TrkA cell.

T1 sequence (P04629 33-796): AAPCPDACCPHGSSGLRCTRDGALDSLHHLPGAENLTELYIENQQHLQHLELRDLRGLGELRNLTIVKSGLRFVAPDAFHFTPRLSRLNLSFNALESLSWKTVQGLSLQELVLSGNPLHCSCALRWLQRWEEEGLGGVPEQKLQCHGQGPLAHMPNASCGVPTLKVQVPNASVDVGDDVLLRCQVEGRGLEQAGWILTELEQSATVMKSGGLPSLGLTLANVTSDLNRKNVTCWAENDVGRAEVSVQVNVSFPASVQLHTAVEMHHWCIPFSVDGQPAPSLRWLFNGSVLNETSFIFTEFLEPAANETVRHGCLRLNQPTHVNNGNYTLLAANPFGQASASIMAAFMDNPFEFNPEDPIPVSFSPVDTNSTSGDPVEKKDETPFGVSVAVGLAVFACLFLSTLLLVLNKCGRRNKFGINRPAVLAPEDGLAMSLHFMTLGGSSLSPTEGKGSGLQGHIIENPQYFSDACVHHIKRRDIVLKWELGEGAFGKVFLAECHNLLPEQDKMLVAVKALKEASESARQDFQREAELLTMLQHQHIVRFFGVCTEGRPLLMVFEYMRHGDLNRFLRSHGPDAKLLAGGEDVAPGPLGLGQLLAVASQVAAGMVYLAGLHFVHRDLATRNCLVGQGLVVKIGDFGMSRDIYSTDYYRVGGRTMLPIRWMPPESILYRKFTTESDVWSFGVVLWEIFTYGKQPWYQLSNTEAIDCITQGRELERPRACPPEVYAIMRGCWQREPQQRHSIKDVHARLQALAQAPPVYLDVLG
T4 sequence (P04629 33-423 limits assumed): as the sequence (P04629 33-423 limits assumed) above
T5 sequence (Q3UFB7 34-799): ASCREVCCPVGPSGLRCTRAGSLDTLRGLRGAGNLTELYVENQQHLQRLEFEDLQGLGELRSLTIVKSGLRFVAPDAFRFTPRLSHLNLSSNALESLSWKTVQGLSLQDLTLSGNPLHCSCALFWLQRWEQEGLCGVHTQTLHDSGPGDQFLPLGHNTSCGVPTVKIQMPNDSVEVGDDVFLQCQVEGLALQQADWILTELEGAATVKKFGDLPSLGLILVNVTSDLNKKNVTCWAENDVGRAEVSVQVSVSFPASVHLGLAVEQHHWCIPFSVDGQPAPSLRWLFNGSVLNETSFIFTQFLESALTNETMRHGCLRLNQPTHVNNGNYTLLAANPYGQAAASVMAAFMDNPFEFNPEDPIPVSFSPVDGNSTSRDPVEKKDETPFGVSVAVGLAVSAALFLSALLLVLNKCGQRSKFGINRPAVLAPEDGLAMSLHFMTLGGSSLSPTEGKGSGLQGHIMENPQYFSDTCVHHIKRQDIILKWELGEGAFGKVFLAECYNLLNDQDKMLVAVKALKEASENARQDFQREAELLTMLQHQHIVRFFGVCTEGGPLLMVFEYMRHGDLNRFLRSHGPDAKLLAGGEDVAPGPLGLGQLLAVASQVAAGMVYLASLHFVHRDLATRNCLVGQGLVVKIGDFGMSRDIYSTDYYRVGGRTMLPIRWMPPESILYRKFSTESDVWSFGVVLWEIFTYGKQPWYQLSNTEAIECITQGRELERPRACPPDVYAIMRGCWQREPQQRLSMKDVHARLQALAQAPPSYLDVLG
T3 sequence (Q3UFB7 34-420 limits assumed): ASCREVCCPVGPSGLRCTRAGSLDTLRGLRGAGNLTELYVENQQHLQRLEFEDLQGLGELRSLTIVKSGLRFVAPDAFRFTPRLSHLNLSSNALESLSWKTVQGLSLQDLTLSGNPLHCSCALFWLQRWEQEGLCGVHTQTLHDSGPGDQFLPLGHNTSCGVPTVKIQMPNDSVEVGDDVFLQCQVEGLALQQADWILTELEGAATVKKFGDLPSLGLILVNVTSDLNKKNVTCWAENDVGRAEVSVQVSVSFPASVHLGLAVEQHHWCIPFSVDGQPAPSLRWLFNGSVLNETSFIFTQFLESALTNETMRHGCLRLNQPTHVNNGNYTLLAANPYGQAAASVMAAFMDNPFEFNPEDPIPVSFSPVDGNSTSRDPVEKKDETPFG

B1: 21E5 chimeric antibody (antibody, human IgG4 S228P, kappa, F234A L235A, V domains shown)
VH: QVQLQQSGAELMKPGASMKISCKATGYTFSTYWIEWVKQRPGHGLEWIGENLPGRHITNYNEKFKGKATFTADTSSNTAYMQLSSLTSEDSAVYYCARGRGTYYFDYWGQGTPLTVSS
VL: DIVMTQAAFSTPVTLGTSASISCRSSQSLLHSNGITYLYWYLQKPGQSPQLLIYQMSNLASGVPDRFSSSGSGTDFTLRISRVEAEDVGVYYCAQNLEFPFTFGSGTKLEIKR
notes: expressed in CHO cells
For orientation: EC50 means the midpoint of the concentration-response curve. For orientation: Kd means the equilibrium constant for the complex coming apart. Low readings indicate tighter binding, high ones weaker binding. The koff is the rate constant with which the complex falls apart. What is called kon is the second-order rate constant of association. One may read the IC50 as the midpoint of a concentration-inhibition curve. On to B1, for which the “IC50; p-TrkA level by AlphaLISA in NGF-stimulated NIH3T3-TrkA stable cell line” value (“IC50; p-TrkA level by AlphaLISA” for short) in test [1] turned out to be 0.0856 µg/mL. Besides, the values for the EC50 (in [2]; with Mouse-TrKA protein; in [4]) were under 1.5 µg/mL, 0.0954 µg/mL and 0.0575 µg/mL, respectively. Further, the OD450 in test [3] is about 3 OD450. In test [5], this molecule returned a Kd of 173 pM. In [5], the koff was 0.000175 s⁻¹. The same molecule displayed a kon in [5] of 1.01e+06 M⁻¹ s⁻¹. Further, the figures for the IC50 in [6] and in test [7] were 0.294 µg/mL and 0.547 µg/mL, respectively.

B2: 23E12 chimeric antibody (antibody, human IgG4 S228P, kappa, F234A L235A, V domains shown)
VH: QVQLQQSGAELVRPGTSVKISCKASGYAFTNYWLGWMKQRPGHGLEWIGDFYPRTGNTFYNENFKGKVTLTADKSSNTAYMQLSSLTSEDSAVYLCARAGTGFDYWGQGTTLTVSS
VL: SIVMTQSPKSMSMSVGERVTLSCKASENVGGYVSWYQQKPDQSPKLLIYGASSRHTGVPDRFTGSGSETDFTLTISSVQAEDLAAYHCGQNYIYPFTFGGGTKLEIKR
notes: expressed in CHO cells
Regarding B2, the “IC50; p-TrkA level by AlphaLISA” value in [1] is 0.0537 µg/mL. Moreover, the EC50 was under 1.5 µg/mL in [2], 0.0801 µg/mL in [8], 0.0208 µg/mL with Mouse-TrKA protein and 0.0443 µg/mL in [4]. The OD450 in test [3] was about 3 OD450. This molecule displayed a Kd in [5] of 57 pM. For the same molecule, the koff in test [5] was 0.000109 s⁻¹. The molecule also yielded a kon in test [5] of 1.9e+06 M⁻¹ s⁻¹. The IC50 in test [9] was 0.0515 µg/mL; in test [6], 0.213 µg/mL; in [7], 0.426 µg/mL.

B3: 27H3 chimeric antibody (antibody, human IgG4 S228P, kappa, F234A L235A, V domains shown)
VH: QVQLQQSGAELMKPGASVKISCKTTGYRFSSYWIEWVKQRPGHGLEWLGEILPGRGIINYNENFRGKATFTADTSSNTAYVQLSSLTSEDSAVYFCARTDPPYFGVWGAGTTVTVSS
VL: QAVVTQESALTTSPGETVTLTCRSSTGAVTISNYANWVQEKPDHLFTGLIGGTNNRPPGVPARFSGSLIGDKAALTITGAQTEDEAIYFCVLWYSNHWVFGGGTKLTVLR
notes: expressed in CHO cells
As to B3, in test [1], the “IC50; p-TrkA level by AlphaLISA” value came to 0.0437 µg/mL. The EC50 in test [2] is under 1.5 µg/mL; in test [4], 0.0447 µg/mL. The OD450 in [3] is about 3 OD450. In test [5], this molecule showed a Kd of 178 pM. The molecule further came in with a koff in [5] of 0.000279 s⁻¹. Also, the kon in test [5] was 1.57e+06 M⁻¹ s⁻¹. The values for the IC50 in test [6] and in test [7] were 0.11 µg/mL and 0.369 µg/mL, respectively.

B4: 4H4 chimeric antibody (antibody, human IgG4 S228P, kappa, F234A L235A, V domains shown)
VH: EVQLQQSGPELVKPGASMKISCKASGYSFTGYTMNWVKQSHGKNLEWIGLINPYNGGTRYNQKFKGKATLTVDKSSSTAYMELLSLTSEDSAVYYCASSSYRNDGNWYFDVWGAGTTVTVSS
VL: DIVMTQSPAIMSASPGEKVTMTCSASSSVSYMHWYQQKSGTSPKRWIYDTSKLASGVPARFSGSGSGTSYSLTISSMETEDAATYYCQQWSSNPPTFGGGTKLELKR
notes: expressed in CHO cells
Turning to B4, the “IC50; p-TrkA level by AlphaLISA” value in [1] worked out at 0.129 µg/mL. This molecule showed an EC50 in [2] of under 1.5 µg/mL. For the same molecule, in test [3], the OD450 is about 3 OD450. For the same molecule, the EC50 in test [4] amounted to 0.211 µg/mL. Further, in test [5], binding was put at a Kd of 1680 pM, the koff was found to be 0.000234 s⁻¹ and the kon turned out to be 139000 M⁻¹ s⁻¹. Besides, the IC50 in test [6] is 0.551 µg/mL. Moreover, the IC50 in test [7] was found to be 2.04 µg/mL.
